Test results as given in article PMC13385800 (2026).
One block for each substance: values may come before it.

Key:
Experiment in all cases: co-immunoprecipitation, mass spectrometry
[1] = target: GPS2 (endogenous, HEK293T); conditions: HEK293T cells; n = 3 independent transfections per mutant; read off a plot
[2] = target: TBL1X (endogenous, HEK293T); conditions: HEK293T cells; n = 3 independent transfections per mutant; read off a plot
[3] = target: HDAC3 (endogenous, HEK293T); conditions: HEK293T cells; n = 3 independent transfections per mutant; read off a plot
[4] = target: NCOR1 (endogenous, HEK293T) [Homo sapiens (Human).]; conditions: HEK293T cells; n = 3 independent transfections per mutant; read off a plot
[5] = target: endogenous SETD5 of Flp-In T-REx 293 and HEK293T cells [human (endogenous in Flp-In T-REx 293 and HEK293T)]; conditions: n = 3 independent transfections per mutant, read off a plot

- other: log2 fold change (WT/mutant) [1]: 2.8 log2
- other: log2 fold change (WT/mutant) [2]: 2.3 log2
- other: log2 fold change (WT/mutant) [3]: 2.9 log2
Substance: EGFP-ANKRD11 full length (FL), wild type (from UniProt Q6UB99) E2522K

- other: log2 fold change (WT/mutant) [1]: 3.4 log2
- other: log2 fold change (WT/mutant) [2]: 7.2 log2
- other: log2 fold change (WT/mutant) [3]: 7 log2
Substance: EGFP-ANKRD11 full length (FL), wild type (from UniProt Q6UB99) L2605R

- other: log2 fold change (WT/mutant) [1]: 2.8 log2
- other: log2 fold change (WT/mutant) [3]: 5.9 log2
Substance: EGFP-ANKRD11 full length (FL), wild type (from UniProt Q6UB99) R2523W

- screen value [4]: 7.9 log2
Substance: EGFP-ANKRD11 full length (FL), wild type mutant L2605R [not stated] / NCOR1 (endogenous, HEK293T) [Homo sapiens (Human).] chain 1 L2605R

- screen value [5]: 4.6 log2
Substance: EGFP-ANKRD11 full length (FL), wild type mutant L2605R [not stated] / endogenous SETD5 of Flp-In T-REx 293 and HEK293T cells [human (endogenous in Flp-In T-REx 293 and HEK293T)] chain 1 L2605R

- screen value [4]: 7.4 log2
Substance: EGFP-ANKRD11 full length (FL), wild type mutant R2523W [not stated] / NCOR1 (endogenous, HEK293T) [Homo sapiens (Human).] chain 1 R2523W

The remaining lines, values behind:

Substance: EGFP-ANKRD11 full length (FL), wild type (from UniProt Q6UB99) S2475P
- other: log2 fold change (WT/mutant) [1]: 3.4 log2
- other: log2 fold change (WT/mutant) [2]: 7.6 log2
- other: log2 fold change (WT/mutant) [3]: 7 log2

Substance: EGFP-ANKRD11 full length (FL), wild type mutant E2522K [not stated] / NCOR1 (endogenous, HEK293T) [Homo sapiens (Human).] chain 1 E2522K
- screen value [4]: 2.9 log2

Substance: EGFP-ANKRD11 full length (FL), wild type mutant E2522K [not stated] / endogenous SETD5 of Flp-In T-REx 293 and HEK293T cells [human (endogenous in Flp-In T-REx 293 and HEK293T)] chain 1 E2522K
- screen value [5]: 2.7 log2

Substance: EGFP-ANKRD11 full length (FL), wild type mutant R2512Q [not stated] / NCOR1 (endogenous, HEK293T) [Homo sapiens (Human).] chain 1 R2512Q
- screen value [4]: 4.2 log2

Substance: EGFP-ANKRD11 full length (FL), wild type mutant R2512Q [not stated] / endogenous SETD5 of Flp-In T-REx 293 and HEK293T cells [human (endogenous in Flp-In T-REx 293 and HEK293T)] chain 1 R2512Q
- screen value [5]: 4 log2

Substance: EGFP-ANKRD11 full length (FL), wild type mutant R2523W [not stated] / endogenous SETD5 of Flp-In T-REx 293 and HEK293T cells [human (endogenous in Flp-In T-REx 293 and HEK293T)] chain 1 R2523W
- screen value [5]: 5.6 log2

Substance: EGFP-ANKRD11 full length (FL), wild type mutant S2475P [not stated] / NCOR1 (endogenous, HEK293T) [Homo sapiens (Human).] chain 1 S2475P
- screen value [4]: 7.9 log2

Substance: EGFP-ANKRD11 full length (FL), wild type mutant S2475P [not stated] / endogenous SETD5 of Flp-In T-REx 293 and HEK293T cells [human (endogenous in Flp-In T-REx 293 and HEK293T)] chain 1 S2475P
- screen value [5]: 4.6 log2
